B1: Guanyl-specific ribonuclease T1, P00651 (parent)
chain: MMYSKLLTLTTLLLPTALALPSLVERACDYTCGSNCYSSSDVSTAQAAGYQLHEDGETVGSNSYPHKYNNYEGFDFSVSSPYYEWPILSSGDVYSGGSPGADRVVFNENNQLAGVITHTGASGNNFVECT

Variants of: B1
Settings: Aspergillus oryzae (strain ATCC 42149 / RIB 40); pH 5; Thermal; DSC; Sodium borate-NaOH 10 mM; NaCl 80 mM; reversible: yes; structure 1RN1; whole UniProt chain shown

| Variant | Tm | heat capacity change of unfolding | unfolding enthalpy (calorimetric) | unfolding enthalpy (van 't Hoff) |
| --- | --- | --- | --- | --- |
| Q51K | 61.2 °C | 1.14 kcal/mol/K | 122 kcal/mol | 115 kcal/mol |

Same assay, conditions: Aspergillus oryzae (strain ATCC 42149 / RIB 40); pH 6; Thermal; DSC; Sodium borate-NaOH 10 mM; NaCl 80 mM; reversible: yes; structure 1RN1; whole UniProt chain shown

| Variant | Tm | heat capacity change of unfolding | unfolding enthalpy (calorimetric) | unfolding enthalpy (van 't Hoff) |
| --- | --- | --- | --- | --- |
| Q51K | 56.9 °C | 0.99 kcal/mol/K | 112 kcal/mol | 110 kcal/mol |

Same assay, conditions: Aspergillus oryzae (strain ATCC 42149 / RIB 40); pH 6.5; Thermal; DSC; Sodium borate-NaOH 10 mM; NaCl 80 mM; reversible: yes; structure 1RN1; whole UniProt chain shown

| Variant | Tm | heat capacity change of unfolding | unfolding enthalpy (calorimetric) | unfolding enthalpy (van 't Hoff) |
| --- | --- | --- | --- | --- |
| Q51K | 54 °C | 1.19 kcal/mol/K | 109 kcal/mol | 109 kcal/mol |

Same assay, conditions: Aspergillus oryzae (strain ATCC 42149 / RIB 40); pH 8.6; Thermal; DSC; Sodium borate-NaOH 10 mM; NaCl 80 mM; reversible: yes; structure 1RN1; whole UniProt chain shown

| Variant | Tm | heat capacity change of unfolding | unfolding enthalpy (calorimetric) | unfolding enthalpy (van 't Hoff) |
| --- | --- | --- | --- | --- |
| Q51K | 46.6 °C | 1.15 kcal/mol/K | 97.6 kcal/mol | 102 kcal/mol |

Same assay, conditions: Aspergillus oryzae (strain ATCC 42149 / RIB 40); pH 9.7; Thermal; DSC; Sodium borate-NaOH 10 mM; NaCl 80 mM; reversible: yes; structure 1RN1; whole UniProt chain shown

| Variant | Tm | heat capacity change of unfolding | unfolding enthalpy (calorimetric) | unfolding enthalpy (van 't Hoff) |
| --- | --- | --- | --- | --- |
| Q51K | 44 °C | 1.38 kcal/mol/K | 94 kcal/mol | 105 kcal/mol |

Source: FireProtDB (doi:10.1021/bi00177a023)
